The values below come from the supplement of paper PMC12042874.

± gives the uncertainty stated by the source.

A short description of this data set: amyloid nucleation score (Sup35N fusion, yeast selection) (log enrichment); library NNK2; higher = more nucleation; inactive = no reads after selection. A digest of the protocol:
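The nucleation score is the DiMSum log enrichment of output over input reads, centred on the mode score of non-aggregating sequences. Only sequences with 100 or more input reads were scored, using Illumina sequencing of input and output plasmid inserts. Psi-negative yeast expressing Sup35N fused to peptides of 20 random codons were induced 24 hours with 100 μM copper sulfate and grown 7 days at 30°C on medium lacking adenine and uracil.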
FLSINISISRVLLSDCTS registered an amyloid nucleation score of 3.05 ± 0.12.
Under FLSSIGHLF stands 3.89 ± 0.12.
Under FLSWCFW stands 0.841 ± 0.42; under FLVNVFM, 8.001 ± 0.025; under FLVYYINFIAAKCRPKSNLR, “inactive”.
Under FLYLNAKSVRASIVWYEVKL stands 8.232 ± 0.048.
With FMARRNVAYILEYIIVYRF, the amyloid nucleation score is -0.735 ± 0.64.
For the substance FMFLEKRVGNVGRYFHEYIG, the amyloid nucleation score result is “inactive”.
Under FMMIRV stands “inactive”.
FMNANRRVKKGQRVKRWTYS gave an amyloid nucleation score of 0.045 ± 0.79.
Under FMNNMSWLKNFILTWIYKRR stands “inactive”; under FMQPYTCRSDFDRK, 0.052 ± 0.48.
As for FMRMGTFYSDAVCMLYVSKR, the amyloid nucleation score is 1.28 ± 0.23.
Substance FMVACHCCHTSCEYNFGNTV had an amyloid nucleation score of 3.96 ± 0.13.
FNCTRKNLCFFGIVYSSIIT: the amyloid nucleation score is -0.86 ± 0.63.
Under FNGLVVFSEHMIRITACDEG stands -0.479 ± 1.
On to FNGSGARGSGRMYAILYKMS, for which the amyloid nucleation score came to 0.422 ± 0.56.
Under FNLMSMIRNRH stands -0.548 ± 0.79; under FNLTFNHF, 6.041 ± 0.045; under FNLTICSLDVPTFL, -0.549 ± 1.
Under FNRFLKYMPSSWLWQGCSVQ stands -0.451 ± 0.36.
Under FNRKTKWAYFWLVHGRNR stands 5.213 ± 0.052; under FNTILVRLPA, 0.455 ± 0.55; under FNTYVVNFSRRGDIVMAKR, 6.59 ± 0.085.
On to FNVKWMRW, for which the amyloid nucleation score amounted to 5.36 ± 0.066.
Under FNYSPLRFCTNDC stands 1.63 ± 0.31.
With FNYWPYVLNWWELLYQDDAT, the amyloid nucleation score was 1.11 ± 0.23.
Under FPGWGIDPTYKVKVRWMNRA stands 0.566 ± 0.33; under FPQWFHFGCNLARSL, -0.613 ± 0.46.
On to FPWYCVGYVRSKRDRKVAWS, for which the amyloid nucleation score came out at 0.04 ± 0.34.
Under FQCLVFLLIGRFGVRHWT stands -0.675 ± 1.1; under FQDDDDPFFCVFAYFIGFFA, -0.983 ± 1.1; under FQDWCHREYYLRLREVSLGG, “inactive”.
In the case of FQPFVDLLDVVHRELGSLTR, the amyloid nucleation score turned out to be 4.76 ± 0.067.
With FQSDLMINIK, the amyloid nucleation score was -0.496 ± 0.56.
Under FREVSSLRCIIFLHITCRNS stands 0.647 ± 0.57; under FRFRSNSMSFHNADISLLSV, “inactive”.
The substance FRIHIWYGY registered an amyloid nucleation score of 0.244 ± 0.17.
Under FRRLNTATRRCVTSG stands -1.13 ± 0.55; under FRSGGPLFFHSMGTGFVFVH, -1.5 ± 1.1; under FRSHCWL, 0.285 ± 0.41.
Under FRTQAF stands 1.16 ± 0.47; under FRVFCMHSED, 2.47 ± 0.12; under FRVKRL, -1.19 ± 1.1.
Substance FRVWSFFLNF showed an amyloid nucleation score of 3.12 ± 0.1.
The substance FSAEIRGTQRMLQRLSLYKR registered an amyloid nucleation score of 1.61 ± 0.092.
As to FSCFIIYVGQKTACNSNTAL, the amyloid nucleation score is 4.57 ± 0.08.
Under FSCWGFMVFRMVGDMLSMKD stands -1.58 ± 0.49; under FSDFGMSLRISAKVEWIAMG, -1.59 ± 0.78; under FSEFIYLCTSLMDARQGMVP, -0.804 ± 1.1.
The substance FSEYWVLSELVMVNKGVIWM gave an amyloid nucleation score of -0.865 ± 0.36.
Under FSFSCEGANFDVYTGMWQGS stands -0.073 ± 0.45; under FSFYECLRGFFSNVDARCQV, 1.51 ± 0.11; under FSGFNR, “inactive”.
For the substance FSGLSCY, the amyloid nucleation score result is “inactive”.
Under FSGLTDHFRSYLMYSAWTNI stands -0.238 ± 0.48; under FSHNTEFRVGCGYEFAVGKA, -0.262 ± 0.79.
Take FSIGGVKGEGSKFQGGSQMS: the amyloid nucleation score is -0.12 ± 1.
Substance FSKLLDGLTNRSESPASSVD had an amyloid nucleation score of 1.69 ± 0.14.
Turning to FSKLVSIYFWGSGWWFCQWA, the amyloid nucleation score is -0.532 ± 0.64.
Under FSLFISKMN stands -0.474 ± 1; under FSLLTTFSLTNGGPAFLMIR, “inactive”; under FSMRCYRVVLKYVSTGW, 0.905 ± 0.35.
Under FSMYSSSVWLDW stands “inactive”; under FSPHHEPTSRG, 0.426 ± 0.45.
Substance FSPVSPSSGKAHGIGLVLLV had an amyloid nucleation score of 0.083 ± 0.41.
Under FSRADTVF stands 2.79 ± 0.13; under FSRSVKRLIVDVLRNKVCI, 0.58 ± 0.54.
Under FSSEGLRIRKIRQGISISLC stands -1.21 ± 1.1; under FSSLRILTERENFHLVSGVH, -1 ± 0.78.
For FSVLAMAWSS, the amyloid nucleation score was -0.226 ± 1.1.
Under FTALSIGLIIVMLRLYRRCF stands -0.733 ± 0.64; under FTCITIGVFELAQACPIYGG, 6.15 ± 0.071; under FTFTRQSAGAHRYDIFVPRT, 0.17 ± 0.41.
Under FTGYRAISASLGTYCLKSCG stands -0.245 ± 0.76; under FTILTP, -0.375 ± 0.79.
The substance FTIYCSYIFCQCWDTSEKSK registered an amyloid nucleation score of 8.593 ± 0.044.
Under FTKKFYWGYPWCYMVF stands -0.229 ± 0.8; under FTKVFRLHYFMRLTSMYVAF, -0.567 ± 1.1.
The substance FTMYPITG registered an amyloid nucleation score of 0.311 ± 0.29.
Under FTPIGIIMYSFFKRTFTFVT stands -1.06 ± 1.1; under FTRYLTFNFRLETYYRGSHG, 1.44 ± 0.18; under FTVDCLVVIFVYIEPMNWMG, 0.672 ± 0.62.
Under FVANSRLLALRLVIGTMLAG stands 0.214 ± 0.77; under FVCTDCLF, -1.35 ± 0.48.
Under FVKWIMY stands 4.09 ± 0.098; under FVLWIRYALRVTDYTVYMGA, 0.436 ± 0.39.
Consider FVNFMGWTMSNINNVYFGHK, for which the amyloid nucleation score is 7.303 ± 0.055.
Under FVQCLWVAWGSSGSSWQKSE stands 5.541 ± 0.041; under FVSEINVTSGD, 0.547 ± 0.42.
With FVSGRVQLQASGLVRGNRWV, the amyloid nucleation score result is “inactive”.
Take FVSLTLCCYGEGDVPLREVQ: the amyloid nucleation score worked out at 1.9 ± 0.14.
Under FVSLVWKTLKVSRSIVSNFD stands 2.74 ± 0.15.
Substance FVSRSLNSQGQWFRSMTECR showed an amyloid nucleation score of -0.517 ± 0.36.
Consider FVWGREMGCWCQEWYRCMRN, for which the amyloid nucleation score is -0.015 ± 0.24.
FVWSFHCCMARWYGLGCSYM: the amyloid nucleation score amounted to 1.1 ± 0.15.
Under FVYESIFLHRMSYNPIRWWV stands 0.112 ± 1.1; under FWEYEPLPPQQMSTFPD, -0.106 ± 0.79; under FWFIRTRAGDWCPSSSPRMF, 0.149 ± 0.23.
Under FWFKV stands 0.335 ± 0.42; under FWQNCMALLFRFIMFKRKNV, -1.27 ± 1.
FWSRKCSFCFNGASVSGEVM gave an amyloid nucleation score of -0.088 ± 1.1.
Under FWVPSLSTYLSFFGKFRDWA stands -0.347 ± 0.5; under FYAHYASHL, “inactive”.
